# B1: library; numbered along this chain (parent)
# chain: MAAAGGARLLRAASAVLGGPAGRWLHHAGSRAGSSGLLRNRGPGGSAEASRSLSVSARARSSSEDKITVHFINRDGETLTTKGKVGDSLLDVVVENNLDIDGFGACEGTLACSTCHLIFEDHIYEKLDAITDEENDMLDLAYGLTDRSRLGCQICLTKSMDNMTVRVPETVADARQSIDVGKTS
# Variants of: B1
# Test: scaled log2 fold change in cell abundance, elesclomol vs control (0 = silent mean, 1 = nonsense mean) (scaled log2 ratio); higher = higher viability under elesclomol (loss of FDX1 cuproptosis function)
# Details: glucose 10 mM
# Protocol: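 Deep mutational scan of full-length human FDX1: a pooled saturation-mutagenesis ORF library (every residue 2-184 mutated to all 19 amino acids plus stop, and silent codons where available) was expressed by lentivirus in FDX1-knockout ABC1 (14 days) or HEK293T (11 days) cells grown with elesclomol (ES) or DMSO control. Variant abundance came from ORF sequencing. The log2 fold change (ES vs control, mean of duplicates) was centred on the silent-variant mean (0) and scaled to the nonsense-variant mean (1). Higher values mean greater viability under ES, i.e. loss of FDX1 function in cuproptosis.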
# [1] = with ABC1 FDX1 KO, elesclomol 5 nM, 14 days
# [2] = with HEK293T FDX1 KO, elesclomol 40 nM, 11 days
# 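Also: variant abundance is its share of total variant reads in each endpoint sample, from next-generation sequencing of the integrated ORF PCR-amplified out of genomic DNA.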
Variant,scaled log2 fold change [1],scaled log2 fold change [2]
MAAAGGARLLRAASAVLGGPAGRWLMHAGSRAGSSGLLRNRGPGGSAEASRSLSVSARARSSSEDKITVHFINRDGETLTTKGKVGDSLLDVVVENNLDIDGFGACEGTLACSTCHLIFEDHIYEKLDAITDEENDMLDLAYGLTDRSRLGCQICLTKSMDNMTVRVPETVADARQSIDVGKTS [H26M],0.23,
MAAAGGARLLRAASAVLGGPAGRWLEHAGSRAGSSGLLRNRGPGGSAEASRSLSVSARARSSSEDKITVHFINRDGETLTTKGKVGDSLLDVVVENNLDIDGFGACEGTLACSTCHLIFEDHIYEKLDAITDEENDMLDLAYGLTDRSRLGCQICLTKSMDNMTVRVPETVADARQSIDVGKTS [H26E],0.356,0.955
MAAAGGARLLRAASAVLGGPAGRWLKHAGSRAGSSGLLRNRGPGGSAEASRSLSVSARARSSSEDKITVHFINRDGETLTTKGKVGDSLLDVVVENNLDIDGFGACEGTLACSTCHLIFEDHIYEKLDAITDEENDMLDLAYGLTDRSRLGCQICLTKSMDNMTVRVPETVADARQSIDVGKTS [H26K],0.352,
MAAAGGARLLRAASAVLGGPAGRWLCHAGSRAGSSGLLRNRGPGGSAEASRSLSVSARARSSSEDKITVHFINRDGETLTTKGKVGDSLLDVVVENNLDIDGFGACEGTLACSTCHLIFEDHIYEKLDAITDEENDMLDLAYGLTDRSRLGCQICLTKSMDNMTVRVPETVADARQSIDVGKTS [H26C],-0.0138,
MAAAGGARLLRAASAVLGGPAGRWLGHAGSRAGSSGLLRNRGPGGSAEASRSLSVSARARSSSEDKITVHFINRDGETLTTKGKVGDSLLDVVVENNLDIDGFGACEGTLACSTCHLIFEDHIYEKLDAITDEENDMLDLAYGLTDRSRLGCQICLTKSMDNMTVRVPETVADARQSIDVGKTS [H26G],-0.196,-0.699
MAAAGGARLLRAASAVLGGPAGRWLLHAGSRAGSSGLLRNRGPGGSAEASRSLSVSARARSSSEDKITVHFINRDGETLTTKGKVGDSLLDVVVENNLDIDGFGACEGTLACSTCHLIFEDHIYEKLDAITDEENDMLDLAYGLTDRSRLGCQICLTKSMDNMTVRVPETVADARQSIDVGKTS [H26L],0.346,0.304
MAAAGGARLLRAASAVLGGPAGRWLFHAGSRAGSSGLLRNRGPGGSAEASRSLSVSARARSSSEDKITVHFINRDGETLTTKGKVGDSLLDVVVENNLDIDGFGACEGTLACSTCHLIFEDHIYEKLDAITDEENDMLDLAYGLTDRSRLGCQICLTKSMDNMTVRVPETVADARQSIDVGKTS [H26F],0.206,-0.237
MAAAGGARLLRAASAVLGGPAGRWLDHAGSRAGSSGLLRNRGPGGSAEASRSLSVSARARSSSEDKITVHFINRDGETLTTKGKVGDSLLDVVVENNLDIDGFGACEGTLACSTCHLIFEDHIYEKLDAITDEENDMLDLAYGLTDRSRLGCQICLTKSMDNMTVRVPETVADARQSIDVGKTS [H26D],0.267,0.193
MAAAGGARLLRAASAVLGGPAGRWLPHAGSRAGSSGLLRNRGPGGSAEASRSLSVSARARSSSEDKITVHFINRDGETLTTKGKVGDSLLDVVVENNLDIDGFGACEGTLACSTCHLIFEDHIYEKLDAITDEENDMLDLAYGLTDRSRLGCQICLTKSMDNMTVRVPETVADARQSIDVGKTS [H26P],-0.00391,
MAAAGGARLLRAASAVLGGPAGRWLNHAGSRAGSSGLLRNRGPGGSAEASRSLSVSARARSSSEDKITVHFINRDGETLTTKGKVGDSLLDVVVENNLDIDGFGACEGTLACSTCHLIFEDHIYEKLDAITDEENDMLDLAYGLTDRSRLGCQICLTKSMDNMTVRVPETVADARQSIDVGKTS [H26N],0.169,-0.198

# — the supplement of paper PMC12855868
